Data from paper PMC11026473.

Molecular target: myc-Xbra (UniProt P24781)
Assay: co-immunoprecipitation (IP: Flag, WB: Myc), band intensity quantified
Conditions: Xenopus embryos injected with flag-smad1 constructs and myc-xbra; parent: est. 1.0; read off a plot

Chain of UniProt P24781 (P24781 whole entry): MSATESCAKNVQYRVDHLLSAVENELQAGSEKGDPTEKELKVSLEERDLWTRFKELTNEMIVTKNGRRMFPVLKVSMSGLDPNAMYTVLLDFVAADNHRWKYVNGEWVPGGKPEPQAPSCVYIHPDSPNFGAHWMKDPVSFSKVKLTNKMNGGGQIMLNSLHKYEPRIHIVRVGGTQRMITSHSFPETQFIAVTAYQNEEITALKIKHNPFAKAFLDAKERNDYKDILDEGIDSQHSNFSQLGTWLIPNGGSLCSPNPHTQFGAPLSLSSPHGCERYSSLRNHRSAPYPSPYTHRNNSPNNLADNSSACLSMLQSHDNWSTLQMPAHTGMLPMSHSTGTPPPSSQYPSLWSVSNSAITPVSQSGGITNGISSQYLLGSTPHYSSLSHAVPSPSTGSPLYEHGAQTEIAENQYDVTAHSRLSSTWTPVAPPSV

| Substance | ratio to parent |
| --- | --- |
| flag-Smad1 (WT) (from UniProt Q15797) S187A; S196A; S206A; S214A; C-terminal SSXS to DDXD (4SA3SD) | 0.65 |
| flag-Smad1 (WT) (from UniProt Q15797) S187D; S196D; S206D; S214D; C-terminal SSXS to DDXD (4SD3SD) | 4.1 |
